According to patent publication US20260200999A1, “SYNTHETIC TRANSCRIPTION FACTORS” (ETH ZURICH, priority 2022, published 2026):

Tests used:
[1] = target: T1, FKBP (SEQ ID NO: 142) and FRBT2098L (SEQ ID NO: 140) heterodimerization (Homo sapiens, UniProt P42345+P62942+Q04206, T2098L); test: A/C heterodimerizer-inducible HumTAP gene expression system in HEK293 cells; format: cell-based; details: HEK293; constant A/C heterodimerizer concentration of 100 nM; FIG. 10B
T1 construct: expressed in transfected cells; host or cells: HEK293
T1 sequence (P62942 with tags, fused parts or gaps, stated change not applied, one chain of several): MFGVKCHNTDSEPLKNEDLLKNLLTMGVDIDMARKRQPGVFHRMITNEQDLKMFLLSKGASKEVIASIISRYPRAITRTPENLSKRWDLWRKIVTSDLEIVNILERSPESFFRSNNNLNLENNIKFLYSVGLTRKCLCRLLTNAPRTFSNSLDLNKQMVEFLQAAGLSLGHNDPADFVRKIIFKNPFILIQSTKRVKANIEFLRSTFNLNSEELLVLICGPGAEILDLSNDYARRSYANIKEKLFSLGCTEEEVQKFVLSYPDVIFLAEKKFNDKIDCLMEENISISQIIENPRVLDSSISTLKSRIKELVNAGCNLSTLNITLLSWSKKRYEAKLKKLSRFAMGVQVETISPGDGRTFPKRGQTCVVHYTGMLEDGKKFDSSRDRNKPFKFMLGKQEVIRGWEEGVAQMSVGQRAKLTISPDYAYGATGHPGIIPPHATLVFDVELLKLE
Source text: One well-characterized small-molecule based dimerization system is based on the rapamycin analog A/C (C16-(S)-7-methylindolerapamycin) that induces heterodimerization between the human proteins FK506-binding protein 12 (FKBP; SEQ ID NO: 142) and the FKBP12-rapamycin binding domain (FRB) mutant FRBT2098L (SEQ ID NO: 140), [31]. To achieve A/C heterodimerizer-inducible gene expression, the inventors fused FKBP (SEQ ID NO: 142) to the N-terminus of MTERF158-399 (SEQ ID NO: 1) and FRB (SEQ ID NO: 140) to the C-terminus of different transactivation domains (FIG. 10A). […] In accordance with the results described above, chimeric transactivation domains mediated higher maximal output expression levels than RelA430-551.
The inventors reasoned that in the present system, dimerization might be hindered by either FRB's or FKBP's fusion partner and investigated whether the addition of linkers between the protein domains might impact the EC50 value (FIG. 10 D). A combination of the cMyc nuclear localization signal (NLS) (SEQ ID NO: 122) linking MTERF158-399 and FKBP, and the rigid linker AP6 (SEQ ID NO: 120) linking FRB and RelA430-551 led to a reduction in EC50 to ~60 nM while also increasing maximal output ~3-fold over the variant without linkers and RelA430-551 as TAD (FIG. 10 D).

[2] = tested on: reporter construct with MTERF1 binding sites (SEQ ID NO: 42) upstream a minimal TATA box driving mCerulean; test: mCerulean reporter co-transfection with MTF construct in Hela cells (microscopy, flow cytometry); format: cell-based, human; details: Hela cells co-transfected with MTF construct; microscopy and flow cytometry
Source text: The inventors engineered an exemplary “Human-derived transcriptional activator protein” (HumTAP) transactivation system by engineering a HumTAP transactivator and a promoter comprising the Response Elements/MTERF1 binding sites that is operably linked to a gene of interest. A prototype HumTAP protein was made by fusing a peptide consisting of amino acids 58 through 399 of the human MTERF1 gene (MTERF158-399 (SEQ ID NO: 1), Uniprot Q99551) to a peptide consisting of amino acids 430 through 551 of the RELA protein (RelA430-551 (SEQ ID NO: 3), Uniprot Q04206). This fusion is henceforth referred to as MTERF158-399::RelA430-551 (or “MTF”; SEQ ID NO: 100). A DNA construct was made with a strong EF1A promoter driving a constitutive expression of MTF (SEQ ID NO: 101) in human cells (“MTF construct”).
To construct a promoter with Response Elements/MTERF1 binding sites driving the gene of interest, the inventors placed MTERF1 binding sites (SEQ ID NO: 42) upstream a minimal TATA box (SEQ ID NO: 103). An mCerulean fluorescent reporter representing the gene of interest (Gol) was placed downstream of the TATA box. Each of these is referred to as a reporter construct. […] Using flow cytometry, relative mCerulean levels were measured and calculated by normalization to the transfection control in Hela cells (FIG. 1C). […]

[3] = tested on: Response Element-driven mCerulean reporter (MTERF1 binding sites, SEQ ID NO: 42); test: mCerulean reporter co-transfection with HumTAP constructs in HEK293 cells (flow cytometry); format: cell-based, human; details: HEK293 cells co-transfected with MTF construct; microscopy and flow cytometry
Source text: To construct a promoter with Response Elements/MTERF1 binding sites driving the gene of interest, the inventors placed MTERF1 binding sites (SEQ ID NO: 42) upstream a minimal TATA box (SEQ ID NO: 103). An mCerulean fluorescent reporter representing the gene of interest (Gol) was placed downstream of the TATA box. Each of these is referred to as a reporter construct. Five different reporter constructs were made comprising respectively 3, 5, 7, 9, and 11 MTERF1 binding sites 6 base pairs apart upstream of the TATA box (FIG. 1A; SEQ ID NO: 41, 44, 45, 46 and 47, respectively). They were co-transfected with the MTF construct into Hela cells. […] Using flow cytometry, relative mCerulean levels were measured and calculated by normalization to the transfection control in Hela cells (FIG. 1C). […] Next, reporter plasmids with varying spacer lengths (0, 6 bp and 10 bp; SEQ ID NO: 48, 44 and 49, respectively) (FIG. 1F) between a fixed number of REs (i.e. 5 REs/MTERF1 binding sites) were transfected with the MTF construct. […] This was confirmed using flow cytometry (FIG. 1H). […]
With the goal to engineer stronger and possibly shorter HumTAPs, the inventors fused the MTERF158-399 peptide (SEQ ID NO: 1) to a variety of transactivation domains and transfected HEK293 cells with those constructs and the reporter construct comprising 5×RE/MTERF1 binding sites without a spacer between them (SEQ ID NO: 48).
First, MTERF158-399 (SEQ ID NO: 1) was fused with different subsequences of RelA. RelA361-551 (SEQ ID NO: 27) corresponds to the sequence used in the construction of the bacterial-derived synthetic TF PIT2 [19], while RelA342-551 (SEQ ID NO: 29) contains all annotated transactivation domains according to domain annotation under Uniprot Q04206 (https://www.uniprot.org/uniprotkb/Q04206/entry). […] We also fused MTERF158-399 (SEQ ID NO: 1) to a set of transactivation domains previously found to be strong activators with a small genetic footprint (FIG. 4B).
To further decrease the DNA footprint of a HumTAP, the inventors investigated to what degree the DNA binding domain may be reduced. To this end, the inventors created 3 versions of MTERF1 subsequences fused to RelA430-551 (SEQ ID NO: 3). MTERF173-399 (SEQ ID NO: 7), MTERF1104-399 (SEQ ID NO: 9), and MTERF1135-399 (SEQ ID NO: 11) are subunits of MTERF1 without its mitochondrial transfer peptide (MTERF11-57; SEQ ID NO: 37) that either lack only the first […] N-terminal amino acids (MTERF58-72; SEQ ID NO: 39) or additionally, also lack the first (MTERF173-98; SEQ ID NO: 104) or both the first and second (MTERF1104-134; SEQ ID NO: 106) mterf motifs (FIG. 5A). The removal of N-terminal domains reduces the genetic footprint of a HumTAP (FIG. 5B). These constructs were co-transfected into HEK293 cells with the reporter construct containing 5×RE without a spacer in its promoter (SEQ ID NO: 48).
In addition to RelA430-551 (termed “v1”), the inventors tested three alternative subsequences: v2) RelA342-551 (SEQ ID NO: 29), which contains all transactivation domains as annotated on UniProt Q04206; v3) RelA361-551 (SEQ ID NO: 27), which is identical to the peptide used in the construction of PIT2 [2]; and v4) RelA521-551 (SEQ ID NO: 31), which constitutes only the transactivation domain 1 (TA1). The protein domains WW (SEQ ID NO: 21), KRAB of ZNF473 (SEQ ID NO: 23), Nuc-rec-co-Act (SEQ ID NO: 25), LMSTEN (SEQ ID NO: 19), and FoxoTAD (SEQ ID NO: 17) were recently identified as strong transactivators. To assess their functionality in the HumTAP context, the inventors created fusion proteins between each of them and MTERF158-399 (SEQ ID NO: 1) (FIG. 9A).
Upon co-transfection of HEK293 cells with plasmids encoding pEF1a-driven expression of the fusion HumTAPs, a Response Element-driven mCerulean reporter protein, and a mCherry transfection control, all peptides derived from RelA except TA1 mediated high levels of reporter gene expression. […]

Molecule	molar excess over the MTERF158-399: FKBP plasmid giving the highest mCerulean levels [1] [fold]	mCerulean reporter (Gol) expression [2]	mCerulean reporter (Gol) expression [3]
FRB::RelA430-551: FRBT2098L fused to RelA430-551 (protein) MVAILWHEMWHEGLEEASRLYFGERNVKGMFEVLEPLHAMMERGPQTLKETSFNQAYGRDLMEAQEWCRKYMKSGNVKDLLQAWDLYYHVFRRISQAGEGTLSEALLQLQFDDEDLGALLGNSTDPAVFTDLASVDNSEFQQLLNQGIPVAPHTTEPMLMEYPEAITRLVTGAQRPPDPAPAPLGAPGLPNGLLSGDEDFSSIADMDFSALLSQISS	4		
SEQ ID NO: 51: negative control promoter comprising 5 scrambled DNA binding sites spaced by 10 bp (nucleic acid) DNA: ATTCTACCGTCTCGGGCCATTAAAGGCATATGATTCTACCGTCTCGGGCCATTAAAGGCATATGATTCTACCGTCTCGGGCCATTAAAGGCATATGATTCTACCGTCTCGGGCCATTAAAGGCATATGATTCTACCGTCTCGGGCCATTA		did not lead to mCerulean expression	showed the same behavior
